In patent US20090269840A1 (UCB, published 2009):

Columns and labels:
[1] = target: T1, 7 Ig-domain human KDR fused to human Fc (human, UniProt P35968 20-764); test: BIAcore, KDR-Fc captured on anti-Fc chip, fragment passed over
T1 construct: domain: 7 Ig-domain; also called human 7-domain KDR-Fc; KDR-Fc; not shown: human Fc
Source text: (§1) 7 Ig-domain human KDR fused to human Fc was captured on a chip coated with anti-Fc, and the various fragments of the CDR grafted antibody g165 and the murine parent antibody VR165 were passed over permitting affinity determination. The table below summarises the results obtained. In this assay format, there is an advantage of divalency as shown by the lower off rates (Kd) of the divalent species. The affinity of the grafted DFM is very similar to the murine IgG, with the DFM-PEG showing a minor reduction of affinity.

[2] = target: T1, 7 Ig-domain human KDR fused to human Fc; test: radioimmunoassay: 7 Ig-domain KDR-human Fc captured by polyclonal anti-Fc on a microtitre plate, fragment added, then 125-I labeled VEGF-165 as the blocked ligand
Experimental: The ability of the fragments to block VEGF binding to KDR was measured in a radioimmunoassay.

[3] = target: T1, 7 Ig-domain human KDR fused to human Fc; test: BIAcore, KDR-Fc captured on anti-Fc chip, antibody passed over
Source text: as §1

T1 sequence (P35968 20-764 limits assumed): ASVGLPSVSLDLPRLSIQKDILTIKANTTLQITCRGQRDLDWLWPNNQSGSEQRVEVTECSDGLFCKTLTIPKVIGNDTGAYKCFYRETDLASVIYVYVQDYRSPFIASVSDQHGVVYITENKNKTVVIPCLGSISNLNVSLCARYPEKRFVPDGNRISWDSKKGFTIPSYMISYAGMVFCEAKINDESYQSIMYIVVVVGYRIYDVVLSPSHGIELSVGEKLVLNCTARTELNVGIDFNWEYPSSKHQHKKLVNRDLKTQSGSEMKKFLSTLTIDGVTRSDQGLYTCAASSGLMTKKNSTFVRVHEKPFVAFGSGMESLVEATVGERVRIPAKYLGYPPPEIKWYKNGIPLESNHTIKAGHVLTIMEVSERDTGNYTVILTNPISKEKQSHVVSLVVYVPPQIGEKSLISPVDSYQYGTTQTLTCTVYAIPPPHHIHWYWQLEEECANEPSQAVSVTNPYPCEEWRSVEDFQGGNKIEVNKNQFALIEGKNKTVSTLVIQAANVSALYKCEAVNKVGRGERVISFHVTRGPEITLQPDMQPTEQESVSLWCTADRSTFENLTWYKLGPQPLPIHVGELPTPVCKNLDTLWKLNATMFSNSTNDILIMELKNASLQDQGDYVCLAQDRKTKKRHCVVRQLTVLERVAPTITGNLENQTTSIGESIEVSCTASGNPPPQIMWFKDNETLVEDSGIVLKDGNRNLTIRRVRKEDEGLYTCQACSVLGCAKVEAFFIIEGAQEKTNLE

B1: g165 DFM-PEG40 (PEGylated di-(modified Fab) of g165) (other)
light: DIQMTQSPSSLSASVGDRVTITCRASQDIAGSLNWLQQKPGKAIKRLIYATSSLDSGVPKRFSGSRSGSDYTLTISSLQPEDFATYYCLQYGSFPPTFGQGTKVEIKRTVAAPSVFIFPPSDEQLKSGTASVVCLLNNFYPREAKVQWKVDNALQSGNSQESVTEQDSKDSTYSLSSTLTLSKADYEKHKVYACEVTHQGLSSPVTKSFNRGEC
heavy: EVQLVESGGGLVQPGGSLRLSCAASGFTFSSYGMSWVRQAPGKGLEWVATITSGGSYTYYVDSVKGRFTISRDNAKNTLYLQMNSLRAEDTAVYYCVRIGEDALDYWGQGTLVTVSSASTKGPSVFPLAPSSKSTSGGTAALGCLVKDYFPEPVTVSWNSGALTSGVHTFPAVLQSSGLYSLSSVVTVPSSLGTQTYICNVNHKPSNTKVDKKVEPKSCDKTHTCAA
modifications: hinge cysteine linked to (mPEG)-lysyl bis-maleimide (PEG about 40 kDa)
notes: no limits stated
B1 was tested, and the Kd [1] was 0.041 nM and the “IC50 (read off the curve)” value [2] was roughly 0.05 µg/mL.

B2: g165 modified Fab (Fab') fragment, CDP791 (Fab, V domains shown)
VH: EVQLVESGGGLVQPGGSLRLSCAASGFTFSSYGMSWVRQAPGKGLEWVATITSGGSYTYYVDSVKGRFTISRDNAKNTLYLQMNSLRAEDTAVYYCVRIGEDALDYWGQGTLVTVSS
VL: DIQMTQSPSSLSASVGDRVTITCRASQDIAGSLNWLQQKPGKAIKRLIYATSSLDSGVPKRFSGSRSGSDYTLTISSLQPEDFATYYCLQYGSFPPTFGQGTKVEIKR
notes: g165 = gL3gH3; no limits stated; also called CDP791 Fab
In the case of B2, the Kd [1] is reported as 0.91 nM and the “IC50 (read off the curve)” value [2] is reported as roughly 0.2 µg/mL.

B3: g165 DFM (di-(modified Fab) of the CDR-grafted antibody g165, naked) (other)
light: B1 light
heavy: B1 heavy
modifications: hinge cysteine cross-linked to the second Fab' (linker of the naked DFM not described)
notes: also called grafted DFM; naked DFM
B3 was tested, and the Kd [1] was 0.029 nM.

B4: mouse monoclonal antibody VR165 (antibody, mouse IgG2a, V domains shown)
VH: EVQLVESGGDLVKPGGSLKLSCAASGFTFSSYGMSWVRQTPDKRLQWVATITSGGSYTYYPDTVKGRFTISRDNAENTLYLQMSSLKSEDTAMYYCVRIGEDALDYWGQGTSVTVSS
VL: DIQMTQSPSSLSASLGERVSLTCRASQDIAGSLNWLRQEPDGTIKRLIYATSSLDSGVPKRFSGSRSGSDYSLTISSLESEDFVDYYCLQYGSFPPTFGGGSKLEIKR
notes: also called mIgG; murine IgG
For B4, the Kd [3] was 0.03 nM.

B5: g165 FAB-PEG40 (PEGylated modified Fab of g165) (Fab, V domains shown)
VH: B2 VH
VL: B2 VL
modifications: single cysteine of the truncated hinge linked to (mPEG)-lysyl maleimide (two mPEG of about 20,000 Da, about 40,000 Da in all)
notes: no limits stated
For B5, the Kd [1] was 1.07 nM.
